From article PMC11032447, “A hydrophobic groove in secretagogin allows for alternate interactions with SNAP-25 and syntaxin-4 in endocrine tissues” (Proceedings of the National Academy of Sciences of the …, 2024)
No end group written: not given here.

T1: human secretagogin (human, UniProt O76038 1-276)
T1 construct: human secretagogin; construct in Dataset S1; Construct limits are in Dataset S1; also called recombinant human secretagogin; source: recombinant; coexpressed and copurified with the GFP fusion, or purified
T1 sequence (looked up): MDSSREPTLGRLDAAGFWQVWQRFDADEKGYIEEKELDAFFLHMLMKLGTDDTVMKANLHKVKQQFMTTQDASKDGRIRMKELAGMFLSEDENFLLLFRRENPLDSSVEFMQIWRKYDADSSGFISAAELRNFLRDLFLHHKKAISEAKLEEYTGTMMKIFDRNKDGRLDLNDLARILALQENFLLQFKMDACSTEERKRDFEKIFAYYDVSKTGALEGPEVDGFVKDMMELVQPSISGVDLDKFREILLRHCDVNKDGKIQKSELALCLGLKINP

B1: mouse secretagogin (natural protein, UniProt Q91WD9 1-276, looked up)
chain: MDNARRKTPARLDAACFWQIWQRFDKEEKGYIRETELDAFFDHLLAKSGTEDTLMEENVQKVKEQLMTSHNVSKEGRILMKELASMFLSEDENFLLFFRLETPLDNSVEFMQIWRKYDADSSGFISAAELCNFLRDLFLHHKKNISEAELEEYTSTMMKIFDKNKDGRLDLNDLARILALQENFLLQFKMDASSTEERKRDFEKIFAHYDVSKTGALEGPEVDGFVKDMMELVQPSISGVDLDKFREILLRHCDVNKDGKIQKSELALCLGLKINP
notes: mouse secretagogin, the three-domain protein (domains A, B, C); construct in Dataset S1; also called mSCGN; SCGN; source: recombinant, produced and purified; E. coli BL21(DE3) named for the pull-down constructs
B2: GFPmSTX4Hb7 (peptide)
chain: TPLPEESMKQGLQNLREEIKQLGREVRAQLKAIEPQKE
modifications: also: fused as C-terminal tag to GFP
notes: mouse syntaxin-4, stretch of the Hb helix, C-terminal tag on GFP; source: recombinant GFP fusion; not shown: GFP, N-terminal, kept
B3: helix-a of the Habc domain of mouse syntaxin-4 (domain or fragment, UniProt P70452 32-80, looked up)
chain: ARLGSPDDEFFQKVQTIRQTMAKLESKVRELEKQQVTILATPLPEESMK
notes: limits in Dataset S1; Used as bait in the pull-down; source: recombinant; E. coli BL21(DE3) named for the pull-down constructs
B4: GFPmSTX4Hb10 (peptide)
chain: GLQNLREEIKQLGREVRAQLKAIEPQKE
modifications: also: fused as C-terminal tag to GFP
notes: mouse syntaxin-4, stretch of the Hb helix, C-terminal tag on GFP; A linker stands between GFP and the peptide; also called GFP-syntaxin-4-peptide; chimeric GFP-syntaxin-4 (STX4)-derived peptide; source: recombinant GFP fusion; complex with secretagogin isolated by preparative SEC; not shown: GFP, N-terminal, kept
B5: GFPmSTX4Hb9 (peptide)
chain: ESMKQGLQNLREEIKQLGREVRAQLKAIEPQKE
modifications: also: fused as C-terminal tag to GFP
notes: as for B2
B6: helix-b of the Habc domain of mouse syntaxin-4 (domain or fragment, UniProt P70452 72-109, looked up)
chain: B2 chain
notes: limits in Dataset S1; Used as bait in the pull-down; also called Hb; syntaxin-4 Hb; source: recombinant; E. coli BL21(DE3) named for the pull-down constructs
B7: Habc domain of mouse syntaxin-4 (domain or fragment, UniProt P70452 32-170, looked up)
chain: ARLGSPDDEFFQKVQTIRQTMAKLESKVRELEKQQVTILATPLPEESMKQGLQNLREEIKQLGREVRAQLKAIEPQKEEADENYNSVNTRMKKTQHGVLSQQFVELINKCNSMQSEYREKNVERIRRQLKITNAGMVSD
notes: mouse syntaxin-4, globular Habc domain; limits in Dataset S1; The His6 tag is told for the pull-down baits; a Habc with the N-peptide is m36; also called Habc module of syntaxin-4; syntaxin-4-derived Habc module; source: recombinant, produced and purified; E. coli BL21(DE3) named for the pull-down constructs
B8: mouse SNAP-25 peptide 155-179 (peptide)
chain: GIIGNLRHMALDMGNEIDTQNRQID
notes: mouse SNAP-25, stretch of the C-terminal helix; Tags of the deletion constructs are in Dataset S1; also called mSNAP-25^14−33; SNAP-25^14–33; source: recombinant deletion construct of SNAP-25c
B9: GFP carrying the SNAP-25-derived peptide (AA155-179) at its C-terminus (peptide)
chain: GIIGNLRHMALDMGNEIDTQNRQID
notes: SNAP-25 stretch 155-179 (mouse and human identical), attached to the C-terminus of GFP; GFP serves as crystallization chaperon; also called GFP-SNAP-25c chimera; GFP-linked SNAP-25-peptide; source: coexpressed and copurified with secretagogin; not shown: GFP, N-terminal, kept

What was measured:
[1] = molecular target: T2, C-terminal SNARE domain of mouse SNAP-25 (mouse, UniProt P60879 140-206); assay: ITC; in the presence of Ca2+; conditions: both partners purified
T2 construct: mouse SNAP-25, C-terminal SNARE domain (helix), identical in SNAP25-1 and SNAP25-2; limits in Dataset S1; The pull-down fragments are said to derive from isoform-2; also called SNAP-25c; SNAP-25C; source: recombinant; E. coli BL21(DE3) named for the pull-down constructs
T2 sequence (P60879 140-206): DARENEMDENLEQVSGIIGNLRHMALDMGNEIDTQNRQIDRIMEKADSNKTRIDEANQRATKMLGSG

[2] = molecular target: B7; assay: ITC; in the presence of Ca2+; conditions: both partners purified
mouse secretagogin [3] = molecular target: B1; assay: ITC; GFP-fusion peptides of the syntaxin-4 Hb helix; the sentence names no method, the values are said to stand in SI Fig. S3E and SI Table S1 (ITC data); conditions: both partners purified
mouse secretagogin [4] = molecular target: B1; assay: ITC; in the presence of Ca2+; conditions: both partners purified
human secretagogin = molecular target: T1, human secretagogin; assay: co-expression and co-purification + SEC; GFP-peptide fusion coexpressed with human secretagogin; in the presence of Ca2+; conditions: partners not purified

| Binder | Kd (mouse secretagogin [3]) | Kd (mouse secretagogin [4]) | other results |
| --- | --- | --- | --- |
| B1 |  |  | stoichiometry N [1]: 1; stoichiometry N [2]: 1 |
| B2 | 0.275 µM |  |  |
| B3 |  | ~7 µM |  |
| B4 | 0.826 µM |  |  |
| B5 | 0.541 µM |  |  |
| B6 |  | ~0.209 µM |  |
| B7 |  | ~14 µM |  |
| B8 |  | ~0.0466 µM |  |
| B9 |  |  | binding result (human secretagogin): binds |
